experiment: soluble on expression in E. coli; label from the status in PepcDB or PDB records

Sequence	soluble on expression in E. coli
MGFSFLLATVQKERMKRRSRTRSRSRRRAKQDPKTWVARYIPQDLLIEILTRLPPKSVMRFKCVSKFWSSLLSSRYFCNRFLIVPSQPQPSLYMCLLDRYNYSKSLILSSAPSTSPYSFVFDQDLTIRKMGGFFLRILRGFIFFTRNLKARIYNPTTRQLVILPTIKESDIIAGPPYNILYFICHDPVNDRYKLLCTVSYASDNDLQNLKSELWIFVLEAGGSWKRVANEFPHHVPSHLDLNMNGVLYFLAWTDPHTCMLVSFDVRSEEFNTMQVPRNAGDTLPRQEKGVVNRVW	not soluble
MSLKRVSVIICMFLYFVLTDKAHAQRCLPGTKGLRITAGMTDGFHTADKRNELGYHFGMGMDRYVNGCHKWVFSGEYLQKYYPYKDIRVPVSQFTAEGGYYYNFLSDANKVFLCYAGGSVLAGYETVNWGTGMLFDGSRLCVGDAFVYGGAVSLEIETYLANQVVLLFHARERCLWGNDSGHFHFQFGVGLKIILNEGHHHHHH	not soluble
MKWKVLQLKTQEIKVNNLAKSSLHQPGSLVLRNRIRNNQTISNHQKVYITNLHKDKLKLNNLLRLMKSTNRHMPFRNLVLATGQELALLHNKRKRRKTLPLALFYSHLILL	not soluble
GPGSMSEEHANDSTLRVKVATINDKGEEVYASSLSHDGTYLAAVFGDGALVIFNPSTFSALDSSAAGKGYDNVPCTAVQWLESSEGGLYRLVSVSSAGGVFIWQWDGAALHRTNRVPEKGNEITCLAVSPECDMFITAGSDRTVRLYDADGTLKANLQMAHDESGVSRLAHTSRIFSVRFVSQGVAVSGGWGGPLQVWDLKANEARVEIRGAQVSSDGIELITGTNCVLVASRRQKEQLQVFDCVSGQELADDSARLSMALGELIPLSSRLCKTSGLVWTITSSPSKVLVTSYSTGQLIASYDSAYDLMNISIFEGLPNNAYISCAEGKLLFATVKQ	not soluble
MGSDKIHHHHHHMRFYPWLQWLKRKTAGAGCVHQFIQTQCPAPAESGTQEPPPAEQDTQTESNAMPSLALRIGDKNFRATLYDNDSTRSLLKKLPLTLTMDELNGNEKFYFFSEKLPSASERVGSIKTGDLMLYGSDCLVLFYESFPTSYSYTRLGTVDDVTGLANALGSGSVEVTFSIN	not soluble
MIIDGHTHVILPVEKHIKIMDEAGVDKTILFSTSIHPETAVNLRDVKKEMKKLNDVVNGKTNSMIDVRRNSIKELTNVIQAYPSRYVGFGNVPVGLSENDTNSYIEENIVNNKLVGIGELTPASGQIKSLKPIFKYSMDSGSLPIWIHAFNPLVLQDIKEIAELCKAFPKVPVILGHMGGSNWMTAVELAKEIQNLYLDTSAYFSTFVLKIVINELPLKCIFGTDMPFGDLQLSIEAIKKMSNDSYVANAVLGDNISRLLNIMAGDPLEHHHHHH	not soluble
MSLAKSNDKTVTMYSIGPRLKAFSDWLLKTMAAGNLGVIFPAASREYAPLVEELWRDAAIQATYKRRSELGLLPSVANYFLERAIDVLTPDYEPSDVDILYAEGVTSSSGLACLDFSFPQTASEENLDPSDHHDSLLRYQLIRVPSRGLGENCKWIDMFEDVGMVVFVVSMSDYDQVSEDGTNKMLLTKKLFESIITHPIFENMDFLLILNKYDLLEEKVERVPLARCEWFQDFNPVVSRHRGSNNGNPTLGQLAFHFMAVKFKRFYSSLTGKKLFVSSSKSLDPNSVDSSLKLAMEILKWSEERTNICMSEYSMYSTEGHHHHHH	not soluble
LADSIVPRQQWAAIEPRRQIKMNGRADEIFLWQTGPDTCSLMGLTADKCQGCLQDSSCTEQIVKALQDADFKEGNDDIKYNFLIDQDGVIYEGRGWGVVGQHTKGRDSHSIGVAVIGDFGKKEPSQALQDALSKLIICGQAAEELSSGARLRTTPAMSGQAFYDMLDRCDGLCLDD	soluble
GSHPLGDTSDASKLSSDYSLPDLINTRKVPNNWQTGEQASLEEGRIVLTSNQNSKGSLWLKQGFDLKDSFTMEWTFRSVGYSGQTDGGISFWFVQDSNIPRDKQLYNGPVNYDGLQLLVDNNGPLGPTLRGQLNDGQKPVDKTKIYDQSFASCLMGYQDSSVPSTIRVTYDLEDDNLLKVQVDNKVCFQTRKVRFPSGSYRIGVTAQNGAVNNNAESFEIFKMQFFNGVIEDSLIPNVNAMGQPKLITKYIDQQTG	soluble
MSLQTRPILVVGATGKTGSRVAAKLEAKGAAVRRGSRHAEIPFDWESPATWAPALSGVSRAYVTYFPDLAFPGAVEKLEAFTKVAAASGLDQIVLLSGRGEHHARLGEKVVETSGIPFTIVRAAWFAQNFSEGYLRDPVVAGVLPMPGGDIAEPIIDIDDIADVVVAALSEDGHAGQLYEVTGPRLMTFAEMAKVLSTATGRPIRHLPISFEDFHANVAAAGGEFVADVFTAIARETLDGRNAYVSDGVERALGRKPRDFAAFAAAAASQGLWTAAEGHHHHHH	soluble
MADQEHIDAGLLSTNFDMIQALPLNVKQRVCALKNLQMKTIQIESDFYKRVHELEIEFEGKFKSTFDQRKAIVAGEVEPTKEQIDTPILEGLEGDQLAELYKAAEADPSAKGIKDFWLTALRTHDLVAEAIEEHDVPILSYLTDVTTAASKDPAGFKIEFHFATNPYFKNQVLTKTYLLGFDPDAEAPLQFDGPHVIRAVGDTIEWEDGKNVTKKAVKKKQKKGANAGKFLTKTVKADSFFNFFEPPKSKDERNEDEDDEQAEEFLELDYEMGQAIRDTIIPRAVLFYTGELQSDDMFDFPGEDGDDVSDFSDDEA	soluble
MTNDLADIKLYDQNPDEAAIERLHHRLALVMKNQDASLVATSDPKELERVEKWVQDVLGADEQSAKRGVSKVADMMSGDRRKSRMTFYYLVAKQLNALHKI	not soluble
MSLDSIVNAYEESDVLDPRTDAERPSVPPVIKPVDLGPVHVETPVVLSPMAGVTNWPFRVICESYGPDGLYVAEMITARALVARNPKALRLCRFAPSEKIRSLQLYGVNPSIVEQAAKIVIDENMADHVDLNFGCPVPKVTRRGGGSALPWKTDLFREIIQRVVKVCDAANVPVTAKIRVGIDHEHETFLEAGHIAQEEGCKAVTLHARTTAEYYGGHSDWSRIGELVSELDIPVFGNGDIWGANDALAMVAETGCAGVAIGRGCQGRPWLFADIKNAFAGSDERVDPTLGDVCRVIERHAELLTEFYDEGHHHHHH	not soluble
MSLNADKFRKIDAHSHIQVLGYPFNVSITPEEFLSLMEAYNIEIAIISDVNNDNIAKIVKEYPDKLVGIYWPNPRDEKSINETEKFLEKYEFRGIKLHPLLNMFSPSDPRVEKIMKIAEEFNVHVQIHSGHPPTSLPWQIEELARKFPEVKIVMVHMGHGNAYYIQGAIEIAGRNENIYLETSGMPMPSKIAEAYEVAPRRVVFGIDLPCHHPVVEIAKVLISGLNEKGMKRVFYENAKVLLEGHHHHHH	not soluble
MPGRFELKPTLAKIWHAPDNFRIMEPLPPMHRRGIIIAAIVLVIGFLLPASETSDSPVVTREAQLDLQSQSQPPTEAQLQAQLVAPQNDPDQVAPVAPEPIQEGQPEEQNQPQTQPFQQDSGIGQQWRSYRVESGKTLAQLFRDHGLPPTDVYAMAQVEGAGKPLSNLKNGQMIKIRQNASGVVTGLTIDGDNGQQVLFTRQPDGSFIRAQ	not soluble
MSLTDSFTVRSIEGVCFRYPLATPVVTSFGKMLNRPAVFVRVVDEDGVEGWGEAWSNFPAPGAEHRARLINEVLAPGLVGRKLENPAQAFEVLSKGTEVLALQCGEPGPFAQAISGIDLALWDLFARRRNLPLWRLLGGQSSKIKVYASGINPGGAAQTAEAALKRGHRALKLKVGFGAETDIANLSALLTIVGAGMLAADANQGWSVDQALEMLPRLSEFNLRWLEEPIRADRPREEWRKLRANAKMPIAAGENISSVEDFEAALGDDVLGVIQPDIAKWGGLTVCVELARQILRVGKTFCPHYLGGGIGLLASAHLLAAVGRDGWLEVDANDNPLRDLFCGPVADVREGTIELNQNPGLGIVPDLSAIERYRSIEGHHHHHH	not soluble
MGSDKIHHHHHHMEIELKTLGNYKAILGESPVYDREGNRLFWVDIDGKKVIVNNLDTNEEKYYDTPDLVTSLCLIDYKRIIVTLRHGFHTLNLTTGEITPYLELENNGENRFNDGKCDIRDRYWAGTMNLHIENPKPTASLYKLEGQRLTKVLDKLYRSNGLGWDPDNKLFYLIDTPLRKVFQFDFDKDKGDIYNKRIVMDFKYEPGRPDGMTIDEEGYLWIAHSAGGKVSRWNPKNGEKVSEIKLPVLYVSSVTFGSPEMNQIFITTMSKGGEPLAGRLFTAKMNIKGLQSYKFLT	not soluble
MELFTFIPYFLLLEREESDRNTLANANTEFIREVYELQRVEKDVTLVFFQLQYLSCKLVILREHYRTAQKEHLPCYAYIIGTLEYLKGLLDRCRFIHKCGSAIAPACLPTTEGDPPVCWTAEVICLMELLYACHELKMFNGGEVTLGRVVEYVCHVLGVNVKNASSYYARMRRRKAGDRTYFIDRLREVLLKRMEDDDEGHRRRNR	not soluble
MGSDKIHHHHHHYGGDITYNNHNNFHVLHDRHHRSHHSRSNSRDSDEKWECRRLGVFNSPNPLTNPLLSAPKIAYFNRNGKEYAIAVCENPQIQILVGKSRGASPDFTQTRDYAVLSASSKSGLTFKCNRRHDRYEAVNLVTGSMARIEALACITVAQNDTAAVAIVNGIVGPLQAAGLHL	not soluble
MSLSLTPLSEKLRPNNLDTFIGQNHLLERLQYIISAPRLPSMLFFGPPGCGKSTLALLLAYKKSTNILRISAPETGIQQLRQKLTDIDILILDEIHRFSKAQQDFFLPLLESGKLTMLATTTENPSFSVTKQLLSRLNVLQLRQLGYNELKELVKKGTLFLNILLPDDVINFLATTAHGDARTLFNLIEYISILPEEKRVLEYIKINLPEILERHDKDGDSHYEYASALIKSIRGSNPDAALYYLACLLEGGEDPRFICRRLIISASEDIGLADPQALSLAVSCQQAVEFVGMPEGFIPLSETVVYLALARKSNSTYAAYSNAAREVRLHGAQPVPLHLRNPSTQLQKQWGYGREYKYPHNYPNAWVEQEYFPSTISNRSFYYPKEQGEEPKLNMWHNHIKKKYSEGHHHHHH	not soluble
MRKITSVSVGEQLDSFITRMVQSGRYGSASEVMRSALRLLEQQESRDEAVRNAVIEGLESGESSMTLRDIAAERKQKHRV	soluble
MAKHAPQLPIEVDSETGVWTTDALPMLYVPRHFFVNNHMGIEEVLGADAYAEILYKAGYKSAWHWCEKEAECHGLEGVAVFEHYMKRLSQRGWGLFEIERINLEEGTAEVRLRHSAFVYVYGKVNRKVDYMFTGWFAGAMDQILAARGSSLRTVAEQVYSGAEDGHEDGLFVVKPL	soluble
MGSDKIHHHHHHMMKHRHPQLRFLGATDSVTGSRYLVEAAGKRILVDCGLFQGYKVLRDRNRIPFPVRPDSIDAILLTHAHLDHTGYVPALVRDGFNGPVYATEGTTELCTLLLPDSGHLQEEEAKYAYEHGSSRHSPPVPLYTAADAVRSLDSFREHGFDTPLELGGGIAATFLPAGHILGAAQIRLAVGQHSVHFTGDLGRTDDPLMFPPRGLGAADILVTESTYGNRKHSSLDPELQLGEIITRVAKKNGVIMIAAFAVGRAETLMLHLSRLRSKNAIPDIPVYLNSPMAIDASGMYQRHPDEHRLKQPEYEDMYKVAKMTRTVDDSKLLNLRGGPMVIISASGMLTGGRILHHIAEYGPDPKNAIILSGYQAGGTRGAALAAGVRQLRIYGEDVRIRAEVIQMESLSAHADSDGLIEWMRAAAREPRMTYITHGEPEASDALRIRIKRELGWRVRVPEYLEGISLEDPT	not soluble

Reference: the DeepSol protein solubility set
